One test concerns the target zcyto21 (Homo sapiens, UniProt Q8IU54). Briefly: Soluble receptor inhibition of ligand-induced ISRE signaling, 293 HEK cells overexpressing zcytor19: zcyto21. It is filed as cell-based. The note with it: ligand Zcyto21 10 ng/ml; soluble receptor 10 micrograms/ml; 4-hour. An excerpt:
(§1) A signal transduction reporter assay can be used to show the inhibitor properties of zcytor19-Fc4 homodimeric and zcytor19-Fc/CRF2-4-Fc heterodimeric soluble receptors on zcyto20, zcyto21and zcyto24 signaling. Human embryonal kidney (HEK) cells overexpressing the zcytor19 receptor are transfected with a reporter plasmid containing an interferon-stimulated response element (ISRE) driving transcription of a luciferase reporter gene. Luciferase activity following stimulation of transfected cells with ligands (including zcyto20 (SEQ ID NO:18), zcyto21 (SEQ ID NO:20), zcyto24 (SEQ ID NO:8)) reflects the interaction of the ligand with soluble receptor.
(§2) 293 HEK cells overexpressing zcytor19 were transfected as follows: 700,000 293 cells/well (6 well plates) were plated approximately 18 h prior to transfection in 2 milliliters DMEM+10% fetal bovine serum. Per well, 1 microgram pISRE-Luciferase DNA (Stratagene) and 1 microgram pIRES2-EGFP DNA (Clontech,) were added to 6 microliters Fugene 6 reagent (Roche Biochemicals) in a total of 100 microliters DMEM. This transfection mix was added 30 minutes later to the pre-plated 293 cells. Twenty-four hours later the transfected cells were removed from the plate using trypsin-EDTA and replated at approximately 25,000 cells/well in 96 well microtiter plates. Approximately 18 h prior to ligand stimulation, media was changed to DMEM+0.5% FBS.
(§3) The signal transduction reporter assays were done as follows: Following an 18 h incubation at 37° C. in DMEM+0.5% FBS, transfected cells were stimulated with 10 ng/ml zcyto20, zcyto2l or zcyto24 and 10 micrograms/ml of the following soluble receptors; human zcytor19-Fc homodimer, human zcytor19-Fc/human CRF2-4-Fc heterodimer, human CRF2-4-Fc homodimer, murine zcytor19-Ig homodimer. Following a 4-hour incubation at 37° C., the cells were lysed, and the relative light units (RLU) were measured on a luminometer after addition of a luciferase substrate. The results obtained are shown as the percent inhibition of ligand-induced signaling in the presence of soluble receptor relative to the signaling in the presence of PBS alone.

In the next test the target is T1, zcyto20 (Homo sapiens, UniProt Q8IZJ0).
T1 sequence (Q8IZJ0 26-200): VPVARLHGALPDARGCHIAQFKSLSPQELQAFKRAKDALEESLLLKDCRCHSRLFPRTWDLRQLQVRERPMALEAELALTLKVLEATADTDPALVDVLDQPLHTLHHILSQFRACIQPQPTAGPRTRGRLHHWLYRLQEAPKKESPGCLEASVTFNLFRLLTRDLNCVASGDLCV
The test is described as follows: Soluble receptor inhibition of ligand-induced ISRE signaling, 293 HEK cells overexpressing zcytor19: zcyto20. It is filed as cell-based. To be noted: for Percent Inhibition of Ligand-induced ISRE Signaling by Soluble Receptors: ligand Zcyto20 10 ng/ml, soluble receptor 10 micrograms/ml, 4-hour; for inhibition of zcyto20, zcyto21 and zcyto24-induced signaling: text summary over the three ligands.
From the text: as §1, §2, §3

Another test concerns the target T2, zcyto24 (Mus musculus, UniProt Q4VK74).
T2 construct: The mature polypeptide comprises amino acid residue 29 (Asp) to amino acid residue 202 (Val)
T2 sequence (Q4VK74 20-193): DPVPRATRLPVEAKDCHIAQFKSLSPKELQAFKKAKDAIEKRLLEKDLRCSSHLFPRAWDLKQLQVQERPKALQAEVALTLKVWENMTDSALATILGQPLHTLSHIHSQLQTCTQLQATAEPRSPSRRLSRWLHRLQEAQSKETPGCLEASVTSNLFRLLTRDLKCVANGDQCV
Briefly: Soluble receptor inhibition of ligand-induced ISRE signaling, 293 HEK cells overexpressing zcytor19: zcyto24. It is filed as cell-based. The note with it: ligand Zcyto24 10 ng/ml; soluble receptor 10 micrograms/ml; 4-hour.
From the text: as §1, §2, §3

Test [1] relates to ISG gene expression (OAS, Pkr, Mx1) in liver, spleen and blood. The test is described as follows: ISG gene expression in liver, spleen and blood of injected mice (real-time PCR). It is filed as in vivo, mouse. To be noted: liver, 100 μg i.v.; for PKR: mice (Naive 3.70); for OAS: mice (Naive 6.60); for Mx1: mice (Naive 10.98). As for the experimental part: Mice were sacrificed at various time points (1 hr-48 hr). Spleens and livers were isolated from mice, and RNA was isolated. RNA was also isolated from the blood cells. The cells were pelleted and RNA isolated from pellets using RNAEasy®-kit (Qiagen). RNA was treated with DNase (Amicon) to rid RNA of any contaminating DNA. cDNA was generated using Perkin-Elmer RT mix (Perkin-Elmer). ISG gene induction was measured by real-time PCR using primers and probes specific for mouse OAS, Pkr and Mx1. To obtain quantitative data, HPRT real-time PCR was duplexed with ISG PCR. A standard curve was calculated using known amounts of IFN-stimulated mouse PBLs. All data are shown as expression relative to internal HPRT expression.
Results shown are fold expression relative to HPRT gene expression. […] The data shown is the average expression from 5 different animals/group.
Mice were injected with 100 μg of proteins i.v. Data shown is fold expression over HPRT expression from livers of mice. Similar data was obtained from blood and spleens of mice.
For orientation: Quantitative PCR measures a nucleic acid by following its amplification.

Take “HuCRF2-4-Fc: human CRF2-4-Fc homodimeric soluble receptor”: the “Percent Inhibition of Ligand-induced ISRE Signaling by Soluble Receptors” value (“Percent Inhibition” for short) with zcyto21 turned out to be 79%; with zcyto20 it was 80%; with zcyto24 it was 82%. Also, the “inhibition of zcyto20, zcyto21 and zcyto24-induced signaling” value with zcyto20 is recorded as “No significant effects”.

In the case of “Huzcytor19-Fc/huCRF2-4-Fc: human zcytor19-Fc/human CRF2-4-Fc heterodimeric soluble receptor”, the “Percent Inhibition” value is listed as 16% with zcyto21, 16% with zcyto20 and 47% with zcyto24.

B1: MetIL-29-PEG: E. coli derived IL-29 with N-terminal Met, conjugated to PEG (conjugate, UniProt Q8IU54 20-200, looked up)
Interferon lambda-1: GPVPTSKPTTTGKGCHIGRFKSLSPQELASFKKARDALEESLKLKNWSCSSPVFPGNWDLRLLQVRERPVALEAELALTLKVLEAAAGPALEDVLDQPLHTLHHILSQLQACIQPQPTAGPRPRGRLHHWLHRLQEAPKKESAGCLEASVTFNLFRLLTRDLKYVADGNLCLRTSTHPEST
modifications: N-terminal Met; PEG
notes: E. coli derived IL-29 with N-terminal Met, conjugated to PEG
In the case of B1, the PKR is given as 18.24 fold expression over HPRT expression in test [1] (3 hr), 13.93 fold expression over HPRT expression in test [1] (6 hr), 4.99 fold expression over HPRT expression in test [1] (12 hr) and 3.77 fold expression over HPRT expression in test [1] (24 hr). Moreover, the OAS is 91.29 fold expression over HPRT expression in test [1] (3 hr), 65.93 fold expression over HPRT expression in test [1] (6 hr), 54.04 fold expression over HPRT expression in test [1] (12 hr) and 20.81 fold expression over HPRT expression in test [1] (24 hr). Also, the Mx1 in test [1] (3 hr) is on record as 537.51 fold expression over HPRT expression; in test [1] (6 hr) it was 124.99 fold expression over HPRT expression; in test [1] (12 hr), 33.58 fold expression over HPRT expression; in test [1] (24 hr), 35.82 fold expression over HPRT expression.

B2: Muzcytor19-Ig: murine zcytor19-Ig homodimeric soluble receptor (protein)
chain: RPRLAPPRNVTLFSQNFTVYLTWLPGLGSPPNVTYFVTYQSYIKTGWRPVEHCAGIKALVCPLMCLKKLNLYSKFKGRVQAASAHGRSPRVESRYLEYLFDVELAPPTLVLTQMEKILRVNATYQLPPCMPSLELKYQVEFWKEGLGSKTLFPDTPYGQPVQIPLQQGASRRHCLSARTVYTLIDIKYSQFSEPSCIFLEAPGDKRA
modifications: left off: small tags and cut ends
notes: murine zcytor19-Ig homodimeric soluble receptor
For the molecule B2, the “Percent Inhibition” value came to 103% with zcyto21, 91% with zcyto20 and 89% with zcyto24. Also, the “inhibition of zcyto20, zcyto21 and zcyto24-induced signaling” value with zcyto20 is reported as “No significant effects”.

B3: Huzcytor19-Fc: human zcytor19-Fc homodimeric soluble receptor (protein)
chain: RPRLAPPQNVTLLSQNFSVYLTWLPGLGNPQDVTYFVAYQSSPTRRRWREVEECAGTKELLCSMMCLKKQDLYNKFKGRVRTVSPSSKSPWVESEYLDYLFEVEPAPPVLVLTQTEEILSANATYQLPPCMPPLDLKYEVAFWKEGAGNKTLFPVTPHGQPVQITLQPAASEHHCLSARTIYTFSVPKYSKFSKPTCFLLEVPEAN
modifications: left off: a dimerising Fc or GST
notes: human zcytor19-Fc homodimeric soluble receptor
On to B3, for which the “Percent Inhibition” value with zcyto21 is 45%; with zcyto20, 92%; in the test with zcyto24, 90%.

Source of the values: patent US7135170B2 (ZymoGenetics, Inc., priority 2002, dated 2006).
